# Measured values from patent publication US20220033501A1 (SHANGHAI PHARMAEXPLORER, published 2022).
# Columns and labels:
# [1] = molecular target: T1, human TIM-3 protein on human PBMC (human, UniProt Q8TDQ0 22-301); assay: cell-based or functional assay
# T1 sequence: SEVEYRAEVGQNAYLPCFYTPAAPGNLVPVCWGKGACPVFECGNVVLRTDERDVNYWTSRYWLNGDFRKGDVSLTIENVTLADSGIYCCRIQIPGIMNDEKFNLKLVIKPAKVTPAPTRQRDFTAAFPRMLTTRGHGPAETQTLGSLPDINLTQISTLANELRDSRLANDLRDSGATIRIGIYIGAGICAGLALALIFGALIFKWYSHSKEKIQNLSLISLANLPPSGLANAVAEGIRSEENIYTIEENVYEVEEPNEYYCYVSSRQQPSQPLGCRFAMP
# [2] = molecular target: T2, human TIM-3 ECD (antigen protein of the affinity test) (human, UniProt Q8TDQ0 22-200); assay: AHC sensor kinetics, antibody captured on sensor, antigen protein in solution, global 1:1 fit
# T2 sequence: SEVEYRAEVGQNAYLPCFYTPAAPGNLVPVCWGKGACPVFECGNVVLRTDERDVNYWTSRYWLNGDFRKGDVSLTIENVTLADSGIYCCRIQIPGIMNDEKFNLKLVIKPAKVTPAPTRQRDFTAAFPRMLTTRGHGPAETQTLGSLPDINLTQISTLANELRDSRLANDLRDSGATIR
# Procedure: First, AHC sensor was selected, and the sensor was balanced with buffer solution for 10 min, then the antibody to be tested was diluted to 5 μg/ml with buffer solution, and the antibody was solidified with the sensor for 3-5 min, with a signal value of 1-2 nm. The sensor was balanced again with buffer solution for 3 minutes, and then the antigen protein was diluted to 100 nM (the highest concentration was tentatively 100 nM) to bind and dissociate the antibody coupled by the sensor. If enough signal value was obtained, the antigen protein was diluted by several concentration gradients to analyze the binding and dissociation of antibody and antigen. At that end of each cycle, the sensor surface was regenerated with 10 mM, pH 1.5 Glycine. The kinetic rate constant needed to be subtracted the blank control, and the data was fitted with the global fit analysis method 1:1 combination model. The dissociation equilibrium rate constant (KD) was calculated according to the following formula: KD=kd/ka.
Binder,"IFN-γ production, lymphocyte activation assay (donor Y), antibody 0.1 µg/ml, N = 1 [1] [pg/mL]","IFN-γ production, lymphocyte activation assay (donor Y), antibody 0.1 µg/ml, N = 2 [1] [pg/mL]","IFN-γ production, lymphocyte activation assay (donor Y), antibody 1 µg/ml, N = 1 [1] [pg/mL]","IFN-γ production, lymphocyte activation assay (donor Y), antibody 1 µg/ml, N = 2 [1] [pg/mL]","IFN-γ production, lymphocyte activation assay (donor Y), antibody 10 µg/ml, N = 1 [1] [pg/mL]","IFN-γ production, lymphocyte activation assay (donor Y), antibody 10 µg/ml, N = 2 [1] [pg/mL]","IFN-γ production, lymphocyte activation assay (donor Y), antibody concentration head printed '0' (fifth), N = 1 [1] [pg/mL]","IFN-γ production, lymphocyte activation assay (donor Y), antibody concentration head printed '0' (fifth), N = 2 [1] [pg/mL]","IFN-γ production, lymphocyte activation assay (donor Y), antibody concentration head printed '0' (fourth), N = 1 [1] [pg/mL]","IFN-γ production, lymphocyte activation assay (donor Y), antibody concentration head printed '0' (fourth), N = 2 [1] [pg/mL]",Kd [2] [nM],koff [2] [s⁻¹],kon [2] [M⁻¹ s⁻¹]
"fully human TIM-3 antibody 215A8F2 (antibody, human IgG4, V domains shown, also called antibody number 4) VH: QVQLQQWGAGLLKPSETLSLTCTVYGGSFSGYYWNWIRQPPGKGLEWLGEINHSGSTNYNPSLKRRVTISVDTSKNQFSLKLSSVTAADTAVYYCARVYYYGPFDFWGQGTLVTVSS VL: not shown",2600,2340,3320,2560,3140,2790,2380,2070,1990,2000,0.133,0.000128,965000
"fully human TIM-3 antibody 7A4F10 (antibody, human IgG4, V domains shown, also called antibody number 1) VH: EVQLLESGGGLVQPGGSLRLSCAASGFTFRTHLISWVRQAPGKGLEWVAAITGSGGSTYYADSVKGRFIISRDNSKNTLFLQMNSLRAEDTAVYYCAKDGGSGSYDDFWGQGTLVTVSS VL: ETVLTQSPVTLSLSPGERATLSCRASQSVGSYLAWYQQKPGQAPRLLIYDASNRATGIPARFSGSGSGTDFTLTISSLEPEDFAVYYCQQRSNWPPTFGQGTKVEIK",3150,3220,3330,3220,3340,3890,2180,2090,2250,2160,1.01,0.00113,1.11e+06
"fully human TIM-3 antibody 18D2H2 (antibody, human IgG4, V domains shown, also called antibody number 2) VH: EVQLVESGGDLVQPGGSLRLSCAASGFTFSTYWMTWVRQAPGRGLEWVANIKQDGSAKYYVDSVKGRFTLSRDDAKNSLYLQMNSLRAEDTAVYYCARGSNWFDYWGQGTLVTVSS VL: ETVMTQSPATLSVSPGERATLSCRANQNVYSNLAWYQQKPGQAPRLLIYDASTRATGFPARFSGSGSGTEFTLTISSLQSEDFAVYYCQQYNNWPLTFGGGTKVEIK",2540,2750,3110,2860,3050,3130,2130,2050,2200,2240,2.58,0.00313,1.22e+06
"fully human TIM-3 antibody 57F4E5 (antibody, human IgG4, V domains shown, also called antibody number 7) VH: EVQLVESGGGLVQPGGSLRLSCAASGFTFSSYWMSWVRQAPGKGLEWVANIKQDGSEKYYVDSVKGRFTISRDSAKNSLYLQMNSLRAEDTAMYFCARDSNFFDYWGQGTLVTVSS VL: ETVMTQSPATLSVSPGERATLSCRASQSVSSNLAWYQRKPGQAPRLLIYFSSTRATGIPARFSGSGSGTEFTLTISSLQSEDFAVYYCQQYNNWPLTFGGGTKVEIK",3210,2870,3550,3610,3960,3660,2150,2100,2310,2050,2.48,0.00397,1.6e+06
"fully human TIM-3 antibody 39E5H1 (antibody, human IgG4, V domains shown, also called antibody number 6) VH: EVQLVESGGGLVQPGGSLRLSCAASGFTFSSYWMSWVRQAPGKGLEWVANIKRGGSERYYVDSVKGRFTISGDNAKNSVYLQMNSLRAEDTAVYYCARGSNWFDPWGQGTLVTVSS VL: ETVMTQSPAILSVSPGERATLSCRASQSVYSNLAWYQQKLGQAPRLLIYDASTRATGIPARFSGSGSGTEFTLTISSLQSEDFAVYYCQQYNNWPITFGQGTRLEIK",2710,2710,3400,3600,3500,4120,1840,2100,2090,1950,1.46,0.00155,1.06e+06
"fully human TIM-3 antibody 134H3G6 (antibody, human IgG4, V domains shown, also called antibody number 3) VH: EVQLVESGGGLVQPGGSLRLSCAASGFTFSNSWMTWVRQAPGKGLEWVANIKQAGTEKYYVDSVKGRFTISRDNAKNSLYLQMNSLRAEDTAVYYCNSGSNYFDYWGQGTLVTVSS VL: EIVMTQSPATLSVSPGERATLSCRARQNFYSNLAWYQQKPGQAPRLLIYGASTRATGIPARFSGSGSGTEFTLTISSLQSEDFAVYYCQQYNNWPLTFGGGTKVEIK",2220,2550,3200,3230,3400,3910,1810,2120,2030,2260,4.05,0.00483,1.19e+06
"fully human TIM-3 antibody 34B6D8 (antibody, human IgG4, V domains shown, also called antibody number 5) VH: EVQLVESGGGLVQPGGSLRLSCAASGFTFSTYWMTWVRQAPGKRLEWVANIKQGGGDKYYVDSVKGRFTISTDNAKNSLYLQMNSLRAEDTAVYYCARGSNWFDPWGQGTLVTVSS VL: EIVMTQSPATLSMSPGERATLSCRASQSVYDNLAWYQQKPGQAPRLLIYGASTRATGIPARFSGSGSGTEFTLTISSLQSEDFALYYCQQYTHWPITFGQGTRLEIK",2890,2900,3050,3830,3520,3630,1820,2040,2130,2300,1.05,0.0012,1.15e+06
